# Assay results published in US20260258124A1 (CIMEIO THERAPEUTICS, published 2026).
# Molecular target: T1, human recombinant CD117 (c-Kit) from Sino Biological (Catalog No. 11996-H08H) (human, UniProt P10721 26-524)
# T1 construct: also called soluble antigen
# Assay: BLI Octet, IgG on anti-human Fc sensor, soluble CD117, 1:1 fit
# Method: IgG antibodies were immobilized on biosensors using suitable capture surfaces and binding of soluble antigen to immobilized antibodies was monitored by BLI (Octet). The resulting sensorgrams were analyzed using the supplied software (Fortebio). As antigen human recombinant CD117 (c-Kit) from Sino Biological was used (Catalog No. 11996-H08H, Lot #LC14SE0812). As a pre-experiment a series of experiments was performed to optimize assay parameters. The following parameters were selected:
# (§1) In the main experiment kinetic assays were performed by first capturing IgG using anti-human Fc biosensors. The mAb capture biosensors were then submerged in wells containing different concentrations of antigen (association stage) followed by a dissociation step in running buffer. To allow for double reference correction, IgG-captured sensors were dipped into wells containing only buffer and blank sensors were also dipped into wells containing the antigen. This referencing provided a means of compensating for both the natural dissociation of the capture IgG and non-specific binding of the antigen to the sensor surface. Steps were performed at 25° C. at a constant shaking of 1000 rpm. New sensors were used for each sample. Dissociation rate constants (Kd) were calculated using the ForteBio Data Analysis software. All consumables used were those recommended by ForteBio.
# (§2) All samples were diluted in freshly prepared running buffer. Antibody variants were immobilized onto the surface of a series of biosensors using the capture methods described. Antigen was passed over the surface to generate a binding response. Binding data for the IgG:antigen interactions were collected at 25° C. on the biosensors. A dilution series of the antigen was used in the association step, in order to fit results globally and get the best values for ka, kd, and KD. The response data for the binding of antigen to the surface immobilized IgG were fitted to a 1:1 binding model. HC0 LC0 refers to murine SR-1.
# T1 sequence (P10721 26-524 limits assumed): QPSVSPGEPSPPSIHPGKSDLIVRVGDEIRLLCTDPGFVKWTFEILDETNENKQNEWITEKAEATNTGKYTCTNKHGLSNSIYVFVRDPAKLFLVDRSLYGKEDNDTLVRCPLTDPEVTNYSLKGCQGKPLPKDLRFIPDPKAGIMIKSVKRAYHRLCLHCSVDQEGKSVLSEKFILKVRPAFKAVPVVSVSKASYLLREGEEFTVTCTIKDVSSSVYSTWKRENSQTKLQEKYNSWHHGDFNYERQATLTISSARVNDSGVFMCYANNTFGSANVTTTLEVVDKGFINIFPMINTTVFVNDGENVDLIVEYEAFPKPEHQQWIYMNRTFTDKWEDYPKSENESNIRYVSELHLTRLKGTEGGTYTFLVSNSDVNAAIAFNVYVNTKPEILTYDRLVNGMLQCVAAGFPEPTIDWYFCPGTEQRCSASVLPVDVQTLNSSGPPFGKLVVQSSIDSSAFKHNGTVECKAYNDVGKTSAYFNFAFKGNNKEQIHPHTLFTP
Binder,Kd [nM],koff [s⁻¹],kon [M⁻¹ s⁻¹]
"Dom (antibody, V domains shown, IgG; also called VH3/VL1; HC3 LC1) VH: QVQLVQSGAEVRKPGASVKLSCKASGYTFTSYNMHWVRQAPGQGLEWMGVIYSGNGDTSYNQKFKGRVTLTRDTSTSTVYMELSSLRSEDTAVYYCARERDTRFGNWGQGTLVTVSA VL: EIVLTQSPSSLSASVGDRVTITCRASESVDIYGNSFMHWYQQKPGKAPKLLIYLASNLESGVPSRFSGSGSGTDFTLTISSLQPEDFATYYCQQNNEDPYTFGQGTKLEIK",1.96,0.000971,495000
"HC3 LC5 (antibody, V domains shown, IgG; also called VH3/VL5) VH: QVQLVQSGAEVRKPGASVKLSCKASGYTFTSYNMHWVRQAPGQGLEWMGVIYSGNGDTSYNQKFKGRVTLTRDTSTSTVYMELSSLRSEDTAVYYCARERDTRFGNWGQGTLVTVSA VL: DIQMTQSPSSLSASVGDRVTITCRASESVDIYGNAFMHWYQQKPGKAPKLLIYLASNLESGVPSRFSGSGSGTDFTLTISSLQPEDFATYYCQQANEEPYTFGGGTKLEIK",26.2,0.0187,715000
"HC2 LC5 (antibody, V domains shown, IgG; also called VH2/VL5) VH: QVQLVESGAEVKKPGASVKLSCKASGYTFTSYNMHWVRQAPGQRLEWMGVIYSGNGDTSYNQKFKGRVTITVDKSASTAYMELSSLRSEDTAVYYCARERDTRFGNWGQGTLVTVSA VL: DIQMTQSPSSLSASVGDRVTITCRASESVDIYGNAFMHWYQQKPGKAPKLLIYLASNLESGVPSRFSGSGSGTDFTLTISSLQPEDFATYYCQQANEEPYTFGGGTKLEIK",33.8,0.0214,632000
"HC5 LC2 (antibody, V domains shown, IgG; also called VH5/VL2) VH: EVQLVQSGAEVKKPGESLKISCKGSGYTFTSYNMHWVRQMPGKGLEWMGVIYSGNADTSYNQKFKGQVTISADKSISTAYLQWSSLKASDTAMYYCARERDTRFGNWGQGTLVTVSA VL: DIVMTQSPSTLSASVGDRVTITCRASESVDIYGNSFMHWYQQKPGKAPKLLIYLASNLESGVPSRFSGSGSGTEFTLTISSLQPDDFATYYCQQNNEDPYTFGQGTKLEIK",3.61,0.0017,472000
"HC3 LC3 (antibody, V domains shown, IgG; also called VH3/VL3) VH: QVQLVQSGAEVRKPGASVKLSCKASGYTFTSYNMHWVRQAPGQGLEWMGVIYSGNGDTSYNQKFKGRVTLTRDTSTSTVYMELSSLRSEDTAVYYCARERDTRFGNWGQGTLVTVSA VL: DIVMTQSPSTLSASVGDRVTITCRASESVDIYGSSFMHWYQQKPGQPPKLLIYLASNLESGVPSRFSGSGSGTEFTLTISSLEADDVATYYCQQNNEDPYTFGGGTKLEIK",3.28,0.00216,658000
"HC2 LC2 (antibody, V domains shown, IgG; also called VH2/VL2) VH: QVQLVESGAEVKKPGASVKLSCKASGYTFTSYNMHWVRQAPGQRLEWMGVIYSGNGDTSYNQKFKGRVTITVDKSASTAYMELSSLRSEDTAVYYCARERDTRFGNWGQGTLVTVSA VL: DIVMTQSPSTLSASVGDRVTITCRASESVDIYGNSFMHWYQQKPGKAPKLLIYLASNLESGVPSRFSGSGSGTEFTLTISSLQPDDFATYYCQQNNEDPYTFGQGTKLEIK",10.8,0.00483,449000
"HC2 LC3 (antibody, V domains shown, IgG; also called VH2/VL3) VH: QVQLVESGAEVKKPGASVKLSCKASGYTFTSYNMHWVRQAPGQRLEWMGVIYSGNGDTSYNQKFKGRVTITVDKSASTAYMELSSLRSEDTAVYYCARERDTRFGNWGQGTLVTVSA VL: DIVMTQSPSTLSASVGDRVTITCRASESVDIYGSSFMHWYQQKPGQPPKLLIYLASNLESGVPSRFSGSGSGTEFTLTISSLEADDVATYYCQQNNEDPYTFGGGTKLEIK",8.03,0.00458,571000
"HC3 LC2 (antibody, V domains shown, IgG; also called VH3/VL2) VH: QVQLVQSGAEVRKPGASVKLSCKASGYTFTSYNMHWVRQAPGQGLEWMGVIYSGNGDTSYNQKFKGRVTLTRDTSTSTVYMELSSLRSEDTAVYYCARERDTRFGNWGQGTLVTVSA VL: DIVMTQSPSTLSASVGDRVTITCRASESVDIYGNSFMHWYQQKPGKAPKLLIYLASNLESGVPSRFSGSGSGTEFTLTISSLQPDDFATYYCQQNNEDPYTFGQGTKLEIK",3.09,0.00178,577000
"HC2 LC1 (antibody, V domains shown, IgG; also called VH2/VL1) VH: QVQLVESGAEVKKPGASVKLSCKASGYTFTSYNMHWVRQAPGQRLEWMGVIYSGNGDTSYNQKFKGRVTITVDKSASTAYMELSSLRSEDTAVYYCARERDTRFGNWGQGTLVTVSA VL: EIVLTQSPSSLSASVGDRVTITCRASESVDIYGNSFMHWYQQKPGKAPKLLIYLASNLESGVPSRFSGSGSGTDFTLTISSLQPEDFATYYCQQNNEDPYTFGQGTKLEIK",5.16,0.00206,399000
"Liskamm (antibody, V domains shown, IgG; also called VH5/VL1; HC5 LC1) VH: EVQLVQSGAEVKKPGESLKISCKGSGYTFTSYNMHWVRQMPGKGLEWMGVIYSGNADTSYNQKFKGQVTISADKSISTAYLQWSSLKASDTAMYYCARERDTRFGNWGQGTLVTVSA VL: EIVLTQSPSSLSASVGDRVTITCRASESVDIYGNSFMHWYQQKPGKAPKLLIYLASNLESGVPSRFSGSGSGTDFTLTISSLQPEDFATYYCQQNNEDPYTFGQGTKLEIK",1.92,0.000961,500000
"HC5 LC5 (antibody, V domains shown, IgG; also called VH5/VL5) VH: EVQLVQSGAEVKKPGESLKISCKGSGYTFTSYNMHWVRQMPGKGLEWMGVIYSGNADTSYNQKFKGQVTISADKSISTAYLQWSSLKASDTAMYYCARERDTRFGNWGQGTLVTVSA VL: DIQMTQSPSSLSASVGDRVTITCRASESVDIYGNAFMHWYQQKPGKAPKLLIYLASNLESGVPSRFSGSGSGTDFTLTISSLQPEDFATYYCQQANEEPYTFGGGTKLEIK",29.4,0.0184,626000
"HC5 LC3 (antibody, V domains shown, IgG; also called VH5/VL3) VH: EVQLVQSGAEVKKPGESLKISCKGSGYTFTSYNMHWVRQMPGKGLEWMGVIYSGNADTSYNQKFKGQVTISADKSISTAYLQWSSLKASDTAMYYCARERDTRFGNWGQGTLVTVSA VL: DIVMTQSPSTLSASVGDRVTITCRASESVDIYGSSFMHWYQQKPGQPPKLLIYLASNLESGVPSRFSGSGSGTEFTLTISSLEADDVATYYCQQNNEDPYTFGGGTKLEIK",3.67,0.00216,589000
"Signalkuppe (antibody, V domains shown, IgG; also called VH1/VL3; HC1 LC3) VH: QVQLVQSGAEVKKPGASVKVSCKASGYTFTSYNMHWVRQAPGQGLEWMGVIYSGNGDTSYNQKFKGRVTMTTDTSTSTAYMELRSLTSDDTAVYYCARERDTRFGNWGQGTLVTVSA VL: DIVMTQSPSTLSASVGDRVTITCRASESVDIYGSSFMHWYQQKPGQPPKLLIYLASNLESGVPSRFSGSGSGTEFTLTISSLEADDVATYYCQQNNEDPYTFGGGTKLEIK",1.09,0.000727,670000
"Zumstein (antibody, V domains shown, IgG; also called VH1/VL2; HC1 LC2) VH: QVQLVQSGAEVKKPGASVKVSCKASGYTFTSYNMHWVRQAPGQGLEWMGVIYSGNGDTSYNQKFKGRVTMTTDTSTSTAYMELRSLTSDDTAVYYCARERDTRFGNWGQGTLVTVSA VL: DIVMTQSPSTLSASVGDRVTITCRASESVDIYGNSFMHWYQQKPGKAPKLLIYLASNLESGVPSRFSGSGSGTEFTLTISSLQPDDFATYYCQQNNEDPYTFGQGTKLEIK",1.16,0.000668,576000
"HC1 LC5 (antibody, V domains shown, IgG; also called VH1/VL5) VH: QVQLVQSGAEVKKPGASVKVSCKASGYTFTSYNMHWVRQAPGQGLEWMGVIYSGNGDTSYNQKFKGRVTMTTDTSTSTAYMELRSLTSDDTAVYYCARERDTRFGNWGQGTLVTVSA VL: DIQMTQSPSSLSASVGDRVTITCRASESVDIYGNAFMHWYQQKPGKAPKLLIYLASNLESGVPSRFSGSGSGTDFTLTISSLQPEDFATYYCQQANEEPYTFGGGTKLEIK",8.79,0.00552,628000

# Molecular target: T1, human recombinant CD117 (c-Kit) from …
# Assay: BLI Octet, set-up as in Example 2
# Method: as §1, §2
row,Binder,Kd [nM]
1,"Jungfrau (antibody, V domains shown, IgG; also called VH1.2/VL1) VH: QVQLVQSGAEVKKPGASVKVSCKASGYTFTSYNMHWVRQAPGQGLEWMGVIYSGSGDTSYNQKFKGRVTMTTDTSTSTAYMELRSLTSDDTAVYYCARERDTRFGNWGQGTLVTVSA VL: EIVLTQSPSSLSASVGDRVTITCRASESVDIYGNSFMHWYQQKPGKAPKLLIYLASNLESGVPSRFSGSGSGTDFTLTISSLQPEDFATYYCQQNNEDPYTFGQGTKLEIK",1.3
2,"Aletschhorn (antibody, V domains shown, IgG; also called VH1/VL1.14) VH: QVQLVQSGAEVKKPGASVKVSCKASGYTFTSYNMHWVRQAPGQGLEWMGVIYSGNGDTSYNQKFKGRVTMTTDTSTSTAYMELRSLTSDDTAVYYCARERDTRFGNWGQGTLVTVSA VL: EIVLTQSPSSLSASVGDRVTITCRASESVDIYGNSFMHWYQQKPGKAPKLLIYLASNLESGVPSRFSGSGSGTDFTLTISSLQPEDFATYYCQQNNEPPYTFGQGTKLEIKR",1.4
